Substrate: O=P(O)(O)O[C@H]1[C@H](OP(=O)(O)O)[C@@H](OP(=O)(O)O)[C@H](OP(=O)(O)O)[C@@H](OP(=O)(O)O)[C@H]1OP(=O)(O)O
Assay: purified protein
Conditions: 100 mM Tris-HCl pH 7.5, 50 °C, 10 min, 0.125-4.0 mM sodium phytate, printed kcat does not agree with printed Vmax and Mw

B1: r-Aophytase (recombinant Aophytase; G1XN29 protein) (Orbilia oligospora ATCC 24927) (protein)
chain: ADKFSITLPITARTSSVESDSAAVYYPSKSKYSPIFIGNDGSAETGGFHVYELYGKRSDALVKELGAYKTGRSKLVEVVYGEDRDFVVTLSMSDGMFRVFEVDGKNGVRGLKAEKLVRGDFSAMCTWKSKVGEYVYVLGKRWGYRFLVREKKGGRGVEVVQTQEFGIPIEPNSCTVSPEGKVFLAGDSGKVFSFLAVDETAAPKIVEVGELGGGDEVKGLKIYHGKKDTYLLVGLEDGIEVFDIKKLGSSLGKIQFDDEELEVGDFAVHQTSAKGYEDGSIVFAGEDGEGKFFGVSSLTPLFKALGKGKLNTKYDPRDCTDNHARPKKCANLSDCNGYGYCPKDSRDKKATCDCFPGLTGKTCNKITCPSNCTSPSHGTCTGPNICTCIPPFTGENCATLAVPARYETEESGGADGDDPAIWIHPTDKTKSRIITTVKSEVGSGLGVYDLKGKRTGGVSGGEPNNVDVLYGVEFAGRKVDLAVAACRADDTICIYEITPTGDLVTIPGGVQPLPPAVKELEKKFKVYGSCVYHSPKTGAYHIFVNSKSSLYLQFQLSATTDGKLNTTLVRHFYAGNRGQVEGCVVDDENSSLFLGEEPYGIWSYDAEPDQPAVGTLVDNTVVDGGKLHADVEGVTLVYGKTKKEGYIIVSCQGYSEYNIYQRYPPHEFVMSFSIPDNKEKGVDRVTNTDGITAVGANLGKEWPYGMVVVHDDVNEAAGGGVRADATFKIVGLGDILGNKAVKELGLLKGVDENWDPRK
Km: 1015 µM
kcat: 13.57 s⁻¹
